B1: HDV Ribozyme (parent)
chain: GGCCGGCAUGGUCCCAGCCUCCUCGCUGGCGCCGGCUGGGCAACAUUCCGAGGGGACCGUCCCCUCGGUAAUGGCGAAUGGGACCCA

The variants in the series derive from B1. As to the kind of experiment: self-cleavage, relative activity (ratio to wild type); higher = more cleavage; co-transcriptional.
GGCCGGCAUGGUCCCAGCCUCGUCGCUGGCGCCGGCUGGGCAACAUUCCGAGGGGACCGUCCACUCGGUAAUGGCGAAUGGGACCCA: the self-cleavage was 0.166.
GGCCGGCAUGGUCCCAGCCUCGUCGCUGGCGCCGGCUGGGCAACAUUCCGAGGGGACCGUCCGCUCGGUAAUGGCGAAUGGGACCCA: the self-cleavage came out at 0.
For GGCCGGCAUGGUCCCAGCCUCGUCGCUGGCACCGGCUGGGCAACAUUCCGAGGGGACCGUCCCCUCGGUAAUGGCGAAUGGGACCCA, the self-cleavage stood at 0.121.
As to GGCCGGCAUGGUCCCAGCCUCGUCGCUGGCGCGGGCUGGGCAACAUUCCGAGGGGACCGUCCCCUCGGUAAUGGCGAAUGGGACCCA, the self-cleavage is 0.
Consider GGCCGGCAUGGUCCCAGCCUCGUCGCUGGCGCUGGCUGGGCAACAUUCCGAGGGGACCGUCCCCUCGGUAAUGGCGAAUGGGACCCA, for which the self-cleavage is 0.0268.
Consider GGCCGGCAUGGUCCCAGCCUCGUCGCUGGCGCAGGCUGGGCAACAUUCCGAGGGGACCGUCCCCUCGGUAAUGGCGAAUGGGACCCA, for which the self-cleavage was 0.
Next, GGCCGGCAUGGUCCCAGCCUCGUCGCUGGCGCCGGCUGUGCAACAUUCCGAGGGGACCGUCCCCUCGGUAAUGGCGAAUGGGACCCA: 0.102; GGCCGGCAUGGUCCCAGCCUCGUCGCUGGCGCCGGCUUGGCAACAUUCCGAGGGGACCGUCCCCUCGGUAAUGGCGAAUGGGACCCA: 0.117; GGCCGGCAUGGUCCCAGCCUCGUCGCUGGCGCCGGCUGGGCAACAUUCCAAGGGGACCGUCCCCUCGGUAAUGGCGAAUGGGACCCA: 0.0504.
As to GGCCGGCAUGGUCCCAGCCUCGUCGCUGGCGCCGGCUGGGCAACAUUCCCAGGGGACCGUCCCCUCGGUAAUGGCGAAUGGGACCCA, the self-cleavage was determined as 0.
Take GGCCGGCAUGGUCCCAGCCUCGUCGCUGGCGCCGGCUGGGCAACAUUACGAGGGGACCGUCCCCUCGGUAAUGGCGAAUGGGACCCA: the self-cleavage came to 0.141.
On to GGCCGGCAUGGUCCCAGCCUCGUCGCUGGCGCCGCCUGGGCAACAUUCCGAGGGGACCGUCCCCUCGGUAAUGGCGAAUGGGACCCA, for which the self-cleavage was 0.0978.
With GGCCGGCAUGGUCCCAGCCUCGUCGCUGGCGCCGGCUGGGCAACAUUCCGAGGGGACCGUCCCCUCGGUAAUGGCGAAUGGGACGCA, the self-cleavage came to 0.0396.
Regarding GGCCGGCAUGGUCCCAGCCUCGUCGCUGGCGCCGGCUGGGCAACAUUCCGAGGGGACCGUCCCCUCGGUAAUGGCGAAUGGGAUCCA, the self-cleavage was determined as 0.0563.
Turning to GGCCGGCAUGGUCCCAGCCUCGUCGCUGGCGCCGGCUGGGCAACAUUCCGAGGGGACCGUCCCCUUGGUAAUGGCGAAUGGGACCCA, the self-cleavage came out at 0.0308.
Take GGCCGGCAUGGUCCCAGCCUCGUCGCUGGCGCCGGCUGGGCAACAUUCCGAGGGGACCGUCCCCUCGGUAAUGGCGAUUGGGACCCA: the self-cleavage is 0.0396.
On to GGCCGGCAUGGUCCCAGCCUCGUCGCUGGCGCCGGCUGGGCAACAUUCCGAGUGGACCGUCCCCUCGGUAAUGGCGAAUGGGACCCA, for which the self-cleavage worked out at 0.0563.
Next, GGCCGGCAUGGUCCCAGCCUCGUCGCUGGCGCCGGCUGGGCAACAUUCCGUGGGGACCGUCCCCUCGGUAAUGGCGAAUGGGACCCA: 0.0339; GGCCGGCAUGGUCCCAGCCUCGUCGCUGGCGCCGGCUGGGCAACAUUCCGAGGGGACCGUCCCCUCGGUAAUGGCGAAUGGGGCCCA: 0.126.
As for GGCCGGCAUGGUCCCAGCCUCGUCGCUGGCGCCGGCUGGGCAACAUUCCGAGGGGACCGUCCCCUCGGUAUUGGCGAAUGGGACCCA, the self-cleavage was 0.0923.
In the case of GGCCGGCAUGGUCCCAGCCUCGUCGCUGGCGCCGGCUGGGCAACAUUCCGAGGUGACCGUCCCCUCGGUAAUGGCGAAUGGGACCCA, the self-cleavage was 0.0841.
In the case of GGCCGGCAUGGUCCCAGCCUCGUCGCUGGCGCCGGCUGGGCAACAUUCCGAAGGGACCGUCCCCUCGGUAAUGGCGAAUGGGACCCA, the self-cleavage amounted to 0.112.
For GGCCGGCAUGGUCCCAGCCUCGUCGCUGGCGCCGGCUGGGCAACAUUCCGAUGGGACCGUCCCCUCGGUAAUGGCGAAUGGGACCCA, the self-cleavage was found to be 0.0314.
Under GGCCGGCAUGGUCCCAGCCUCGUCGCUGGCGCCGGCUGGGCAACAUUCGGAGGGGACCGUCCCCUCGGUAAUGGCGAAUGGGACCCA stands 0.0277; under GGCCGGCAUGGUCCCAGCCUCGUCGCUGACGCCGGCUGGGCAACAUUCCGAGGGGACCGUCCCCUCGGUAAUGGCGAAUGGGACCCA, 0.0886.
In the case of GGCCGGCAUGGUCCCAGCCUCGUCGCUGCCGCCGGCUGGGCAACAUUCCGAGGGGACCGUCCCCUCGGUAAUGGCGAAUGGGACCCA, the self-cleavage came out at 0.0536.
Regarding GGCCGGCAUGGUCCCAGCCUCGUCGCUGGCGCCGGCUGGGCAACAUUCCGAGGGGACCGUCCCCUCGGUAAUGGCGCAUGGGACCCA, the self-cleavage worked out at 0.0426.
Consider GGCCGGCAUGGUCCCAGCCUCGUCGCUGGCGCCGGCUGGGGAACAUUCCGAGGGGACCGUCCCCUCGGUAAUGGCGAAUGGGACCCA, for which the self-cleavage was determined as 0.0831.
GGCCGGCAUGGUCCCAGCCUCGUCGCUGGCGCCGGCUGGGCAACAUUCCGAGGGGACCGUCCCCUCGGUAAUGGCGAAUGGGACCCG: the self-cleavage turned out to be 0.106.
Next, GGCCGGCAUGGUCCCAGCCUCGUCGCUGGCGCCGGCUGGACAACAUUCCGAGGGGACCGUCCCCUCGGUAAUGGCGAAUGGGACCCA: 0.
On to GGCCGGCAUGGUCCCAGCCUCGUCGCUGGCGCCGGCUGGCCAACAUUCCGAGGGGACCGUCCCCUCGGUAAUGGCGAAUGGGACCCA, for which the self-cleavage is 0.0665.
For GGCCGGCAUGGUCCCAGCCUCGUCACUGGCGCCGGCUGGGCAACAUUCCGAGGGGACCGUCCCCUCGGUAAUGGCGAAUGGGACCCA, the self-cleavage came out at 0.0396.
